Test results: PMC12486381 (Molecular Biology and Evolution, 2025)
Values joined by “and” are separate entries in the source; they are usually repeats but may differ in a detail not shown here. Identical values can stand only once. Like-named read-outs stand apart in the source and are kept apart here.

Legend:
A0A0N7CEH1 = experiment: initial rate of NADPH and DHF depletion at […] nm, Michaelis-Menten fit; type: biochemical, Skermania phage SPI1; details: 50 mM potassium phosphate pH 7, 27 °C
A0A5E7Z8W7 = experiment: as above; type: biochemical, Hoeflea sp. EC-HK425; details: 50 mM potassium phosphate pH 7, 27 °C
A0A839U7A6 = experiment: as above; type: biochemical, Phyllobacterium trifolii; details: 50 mM potassium phosphate pH 7, 27 °C
BBD029md-00326_13692 = experiment: as above; type: biochemical; details: 50 mM potassium phosphate pH 7, 27 °C
UPI001402A2DF = experiment: as above; type: biochemical; details: 50 mM potassium phosphate pH 7, 27 °C
[1] = test system: DfrB-TS (BBD027md-00173_03685); experiment: as above; type: biochemical; details: read-out: K M ^DHF; DfrB domain; 50 µM NADPH, 50 mM potassium phosphate pH 7, 27 °C
[2] = target: DfrB1 (type B dihydrofolate reductase 1); experiment: SEC
DfrB homolog A0A0N7CEH1 = experiment: SEC
DfrB homolog A0A1M7UVF4 = experiment: SEC
DfrB homolog A0A1R3X8F5 = experiment: SEC
DfrB homolog A0A5E7Z8W7 = experiment: SEC
DfrB homolog A0A6J5PTB3 = experiment: SEC
DfrB homolog A0A345GTK3 = experiment: SEC
DfrB homolog A0A839U7A6 = experiment: SEC
[3] = target: DfrB homolog BBD029md-00326_13692; experiment: SEC
DfrB homolog E2SFM2 = experiment: SEC
[4] = target: DfrB homolog UPI001402A2DF; experiment: SEC
[5] = target: DfrB-TS (BBD027md-00173_03685); experiment: SEC
[6] = read-out: K M ^DHF, 50 µM NADPH
[7] = read-out: K M ^NADPH, 50 µM DHF

Sequence of DfrB1 (type B dihydrofolate reductase 1) (P00383 whole entry): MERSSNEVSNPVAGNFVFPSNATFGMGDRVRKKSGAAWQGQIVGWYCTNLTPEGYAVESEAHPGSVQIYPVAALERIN

## Nc1nc2c(c(=O)[nH]1)N=C(CNc1ccc(C(=O)N[C@@H](CCC(=O)O)C(=O)O)cc1)CN2 [DHF]
A0A0N7CEH1; [6]
  Km: 6 ± 2 µM
A0A5E7Z8W7; [6]
  Km: 7 ± 4 µM
A0A839U7A6; [6]
  Km: 44 ± 5 µM
BBD029md-00326_13692; [6]
  Km: 36 ± 4 µM
UPI001402A2DF; [6]
  Km: 130 ± 20 µM
[1]
  Km: 28 ± 3 µM

## NC(=O)C1=CN([C@@H]2O[C@H](COP(=O)(O)OP(=O)(O)OC[C@H]3O[C@@H](n4cnc5c(N)ncnc54)[C@H](OP(=O)(O)O)[C@@H]3O)[C@@H](O)[C@H]2O)C=CC1 [NADPH]
A0A0N7CEH1; [7]
  Km: 5.7 ± 0.6 µM
A0A5E7Z8W7; [7]
  Km: 18 ± 2 µM
A0A839U7A6; [7]
  Km: 10 ± 5 µM
BBD029md-00326_13692; [7]
  Km: 20 ± 10 µM
UPI001402A2DF; [7]
  Km: 11 ± 1 µM

## DfrB1 (type B dihydrofolate reductase 1) (enzyme)
[2]
  stoichiometry N: 4

## DfrB homolog A0A0N7CEH1 (enzyme)
DfrB homolog A0A0N7CEH1
  stoichiometry N: 4

## DfrB homolog A0A1M7UVF4 (natural protein)
DfrB homolog A0A1M7UVF4
  stoichiometry N: 2

## DfrB homolog A0A1R3X8F5 (natural protein)
DfrB homolog A0A1R3X8F5
  stoichiometry N: 4

## DfrB homolog A0A5E7Z8W7 (enzyme)
DfrB homolog A0A5E7Z8W7
  stoichiometry N: 4

## DfrB homolog A0A6J5PTB3 (enzyme)
DfrB homolog A0A6J5PTB3
  stoichiometry N: 4

## DfrB homolog A0A345GTK3 (natural protein)
DfrB homolog A0A345GTK3
  stoichiometry N: 2

## DfrB homolog A0A839U7A6 (enzyme)
DfrB homolog A0A839U7A6
  stoichiometry N: 4

## DfrB homolog BBD029md-00326_13692 (enzyme)
[3]
  stoichiometry N: 4

## DfrB homolog E2SFM2 (natural protein)
DfrB homolog E2SFM2
  stoichiometry N: 4

## DfrB homolog UPI001402A2DF (enzyme)
[4]
  stoichiometry N: 4

## DfrB-TS (BBD027md-00173_03685) (enzyme)
[5]
  stoichiometry N: 4 and 8
